System: Escherichia coli TOP10
Experiment: shrunken log2 fold change of peptide-encoding DNA abundance (4.5 h post-induction vs induction); higher = less antimicrobial activity (less host growth inhibition)
Conditions: time post-induction: 4.5 h; library: site-saturation at positions 5, 18, 19, 20
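Further: peptides expressed intracellularly from a pBAD plasmid library in pooled LB shake-flask culture, induced with 0.3% L-arabinose, DNA abundance read by NGS, three biological replicates, DESeq2 with apeglm shrinkage.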

## RRIRWRPPRLPRPRPRPQQMPRP
  shrunken log2 fold change: -0.128

## RRIRSRPPRLPRPRPRPYEAPRP
  shrunken log2 fold change: -0.241

## RRIRDRPPRLPRPRPRPPFQPRP
  shrunken log2 fold change: 0.193

## RRIRQRPPRLPRPRPRPLLEPRP
  shrunken log2 fold change: 0.105

## RRIRTRPPRLPRPRPRPILIPRP
  shrunken log2 fold change: -0.485

## RRIRARPPRLPRPRPRPQMAPRP
  shrunken log2 fold change: 0.274

## RRIRTRPPRLPRPRPRPKCQPRP
  shrunken log2 fold change: -0.144

## RRIRARPPRLPRPRPRPCWCPRP
  shrunken log2 fold change: 0.721

## RRIRGRPPRLPRPRPRPYFTPRP
  shrunken log2 fold change: -0.123

## RRIRTRPPRLPRPRPRPWMKPRP
  shrunken log2 fold change: 0.0159

## RRIRYRPPRLPRPRPRPHHLPRP
  shrunken log2 fold change: -0.329

## RRIRCRPPRLPRPRPRPEKMPRP
  shrunken log2 fold change: 0.0239

## RRIRMRPPRLPRPRPRPNGWPRP
  shrunken log2 fold change: 0.175

## RRIRYRPPRLPRPRPRPPMCPRP
  shrunken log2 fold change: -0.0507

## RRIRMRPPRLPRPRPRPSAMPRP
  shrunken log2 fold change: 1.44

## RRIRARPPRLPRPRPRPCMMPRP
  shrunken log2 fold change: -0.0864

## RRIRMRPPRLPRPRPRPSYSPRP
  shrunken log2 fold change: -0.157

## RRIRNRPPRLPRPRPRPGYDPRP
  shrunken log2 fold change: 0.166

## RRIRRRPPRLPRPRPRPDPGPRP
  shrunken log2 fold change: -0.0599

## RRIRMRPPRLPRPRPRPYHCPRP
  shrunken log2 fold change: -0.72

## RRIRARPPRLPRPRPRPSHFPRP
  shrunken log2 fold change: -0.0734

## RRIRIRPPRLPRPRPRPKYRPRP
  shrunken log2 fold change: 0.0239

## RRIRTRPPRLPRPRPRPYAGPRP
  shrunken log2 fold change: -0.14

## RRIRRRPPRLPRPRPRPGNNPRP
  shrunken log2 fold change: -0.365

## RRIRRRPPRLPRPRPRPIWNPRP
  shrunken log2 fold change: 0.0946

## RRIRRRPPRLPRPRPRPVGNPRP
  shrunken log2 fold change: -0.0457

## RRIRLRPPRLPRPRPRPCRMPRP
  shrunken log2 fold change: -0.0411

## RRIRTRPPRLPRPRPRPFLWPRP
  shrunken log2 fold change: 0.189

## RRIRGRPPRLPRPRPRPLAIPRP
  shrunken log2 fold change: 0.567

## RRIRWRPPRLPRPRPRPCFPPRP
  shrunken log2 fold change: -0.164

## RRIRRRPPRLPRPRPRPFLIPRP
  shrunken log2 fold change: 1.61

## RRIRNRPPRLPRPRPRPFTWPRP
  shrunken log2 fold change: -0.62

## RRIRKRPPRLPRPRPRPIPGPRP
  shrunken log2 fold change: -0.0379

## RRIRARPPRLPRPRPRPSSVPRP
  shrunken log2 fold change: -0.0486

## RRIRLRPPRLPRPRPRPKDKPRP
  shrunken log2 fold change: 0.112

## RRIRCRPPRLPRPRPRPFKYPRP
  shrunken log2 fold change: -0.246

## RRIRGRPPRLPRPRPRPWYNPRP
  shrunken log2 fold change: -0.358

## RRIRNRPPRLPRPRPRPYWYPRP
  shrunken log2 fold change: -0.177

## RRIRARPPRLPRPRPRPMQHPRP
  shrunken log2 fold change: 0.642

## RRIRFRPPRLPRPRPRPKLGPRP
  shrunken log2 fold change: -0.0528

## RRIRRRPPRLPRPRPRPWCYPRP
  shrunken log2 fold change: -0.439

## RRIRKRPPRLPRPRPRPYPDPRP
  shrunken log2 fold change: -0.175

## RRIRVRPPRLPRPRPRPFQKPRP
  shrunken log2 fold change: 0.0406

## RRIRSRPPRLPRPRPRPSDNPRP
  shrunken log2 fold change: -0.249

## RRIRWRPPRLPRPRPRPKEQPRP
  shrunken log2 fold change: 0.0237

## RRIRHRPPRLPRPRPRPPGSPRP
  shrunken log2 fold change: 0.0725

## RRIRWRPPRLPRPRPRPHHYPRP
  shrunken log2 fold change: -0.952

## RRIRIRPPRLPRPRPRPWCLPRP
  shrunken log2 fold change: -1.11

## RRIRGRPPRLPRPRPRPNYCPRP
  shrunken log2 fold change: 0.00136

## RRIRQRPPRLPRPRPRPWILPRP
  shrunken log2 fold change: -0.00158

## RRIRHRPPRLPRPRPRPQPKPRP
  shrunken log2 fold change: 0.24

## RRIRMRPPRLPRPRPRPQFVPRP
  shrunken log2 fold change: -0.0894

## RRIRIRPPRLPRPRPRPNARPRP
  shrunken log2 fold change: 0.0831

## RRIRTRPPRLPRPRPRPIKVPRP
  shrunken log2 fold change: 0.0474

## RRIRDRPPRLPRPRPRPLDVPRP
  shrunken log2 fold change: -0.0992

## RRIRFRPPRLPRPRPRPGLKPRP
  shrunken log2 fold change: 0.0731

## RRIRLRPPRLPRPRPRPHFTPRP
  shrunken log2 fold change: -0.355

## RRIRMRPPRLPRPRPRPNQRPRP
  shrunken log2 fold change: 0.332

## RRIRHRPPRLPRPRPRPPAAPRP
  shrunken log2 fold change: 0.0555

## RRIRCRPPRLPRPRPRPAWDPRP
  shrunken log2 fold change: 0.235

## RRIRVRPPRLPRPRPRPEICPRP
  shrunken log2 fold change: 0.2

## RRIRDRPPRLPRPRPRPGIMPRP
  shrunken log2 fold change: 0.0786

## RRIRERPPRLPRPRPRPFVNPRP
  shrunken log2 fold change: -0.561

## RRIRGRPPRLPRPRPRPYLFPRP
  shrunken log2 fold change: -0.0066

## RRIRGRPPRLPRPRPRPKARPRP
  shrunken log2 fold change: 0.208

## RRIRPRPPRLPRPRPRPHSYPRP
  shrunken log2 fold change: 0.0057

## RRIRIRPPRLPRPRPRPGEYPRP
  shrunken log2 fold change: -0.161

## RRIRERPPRLPRPRPRPRRVPRP
  shrunken log2 fold change: 0.447

## RRIRMRPPRLPRPRPRPWNPPRP
  shrunken log2 fold change: 0.12

## RRIRQRPPRLPRPRPRPHPPPRP
  shrunken log2 fold change: 0.667

## RRIRRRPPRLPRPRPRPVTPPRP
  shrunken log2 fold change: 0.705

## RRIRPRPPRLPRPRPRPGWCPRP
  shrunken log2 fold change: 0.072

## RRIRDRPPRLPRPRPRPCGLPRP
  shrunken log2 fold change: 0.371

## RRIRTRPPRLPRPRPRPLWYPRP
  shrunken log2 fold change: -0.245

## RRIRHRPPRLPRPRPRPVHIPRP
  shrunken log2 fold change: -0.035

## RRIRDRPPRLPRPRPRPANQPRP
  shrunken log2 fold change: 0.253

## RRIRGRPPRLPRPRPRPDEMPRP
  shrunken log2 fold change: -0.0376

## RRIRNRPPRLPRPRPRPLKNPRP
  shrunken log2 fold change: -0.234

## RRIRCRPPRLPRPRPRPGDFPRP
  shrunken log2 fold change: -0.0027

## RRIRERPPRLPRPRPRPLERPRP
  shrunken log2 fold change: -0.191

## RRIRRRPPRLPRPRPRPMRVPRP
  shrunken log2 fold change: 0.93

## RRIRDRPPRLPRPRPRPNEGPRP
  shrunken log2 fold change: -0.000567

## RRIRIRPPRLPRPRPRPWYIPRP
  shrunken log2 fold change: -0.0639

## RRIRNRPPRLPRPRPRPVNQPRP
  shrunken log2 fold change: 0.214

## RRIRGRPPRLPRPRPRPLFIPRP
  shrunken log2 fold change: -0.234

## RRIRDRPPRLPRPRPRPATEPRP
  shrunken log2 fold change: 0.646

## RRIRSRPPRLPRPRPRPEEPPRP
  shrunken log2 fold change: 0.729

## RRIRRRPPRLPRPRPRPLVPPRP
  shrunken log2 fold change: 0.175

## RRIRVRPPRLPRPRPRPQCWPRP
  shrunken log2 fold change: 0.198

## RRIRKRPPRLPRPRPRPDPFPRP
  shrunken log2 fold change: -0.0704

## RRIRARPPRLPRPRPRPCGLPRP
  shrunken log2 fold change: -0.0341

## RRIRQRPPRLPRPRPRPYVAPRP
  shrunken log2 fold change: -0.713

## RRIRIRPPRLPRPRPRPCRDPRP
  shrunken log2 fold change: -0.132

## RRIRARPPRLPRPRPRPISKPRP
  shrunken log2 fold change: -0.401

## RRIRMRPPRLPRPRPRPRLDPRP
  shrunken log2 fold change: 0.897

## RRIRIRPPRLPRPRPRPSTSPRP
  shrunken log2 fold change: -0.492

## RRIRFRPPRLPRPRPRPLWDPRP
  shrunken log2 fold change: -0.119

## RRIRDRPPRLPRPRPRPYYTPRP
  shrunken log2 fold change: -0.817

## RRIRIRPPRLPRPRPRPMIEPRP
  shrunken log2 fold change: -0.0216

## RRIRIRPPRLPRPRPRPANMPRP
  shrunken log2 fold change: -0.45

## RRIRGRPPRLPRPRPRPMHYPRP
  shrunken log2 fold change: -0.165

## RRIRSRPPRLPRPRPRPPVAPRP
  shrunken log2 fold change: 0.403

## RRIRDRPPRLPRPRPRPCRLPRP
  shrunken log2 fold change: 0.00469

## RRIRPRPPRLPRPRPRPWGWPRP
  shrunken log2 fold change: 0.149

## RRIRYRPPRLPRPRPRPFTKPRP
  shrunken log2 fold change: -0.184

## RRIRSRPPRLPRPRPRPMFQPRP
  shrunken log2 fold change: 0.0483

## RRIRFRPPRLPRPRPRPCCKPRP
  shrunken log2 fold change: -0.00992

## RRIRVRPPRLPRPRPRPDGDPRP
  shrunken log2 fold change: -0.339

## RRIRDRPPRLPRPRPRPQQSPRP
  shrunken log2 fold change: 0.0846

## RRIRWRPPRLPRPRPRPWHTPRP
  shrunken log2 fold change: 0.103

## RRIRLRPPRLPRPRPRPKHTPRP
  shrunken log2 fold change: 0.228

## RRIRWRPPRLPRPRPRPSNNPRP
  shrunken log2 fold change: -0.446

## RRIRCRPPRLPRPRPRPCMAPRP
  shrunken log2 fold change: -0.427

## RRIRPRPPRLPRPRPRPDMAPRP
  shrunken log2 fold change: -0.119

## RRIRKRPPRLPRPRPRPEEQPRP
  shrunken log2 fold change: 3.17

## RRIRMRPPRLPRPRPRPSWHPRP
  shrunken log2 fold change: -0.103

## RRIRERPPRLPRPRPRPESQPRP
  shrunken log2 fold change: -0.101

## RRIRWRPPRLPRPRPRPVVTPRP
  shrunken log2 fold change: 0.338

## RRIRHRPPRLPRPRPRPDLTPRP
  shrunken log2 fold change: -0.000777

## RRIRCRPPRLPRPRPRPVWLPRP
  shrunken log2 fold change: 0.0721

## RRIRMRPPRLPRPRPRPDSIPRP
  shrunken log2 fold change: 0.0402

## RRIRDRPPRLPRPRPRPTRKPRP
  shrunken log2 fold change: 0.385

## RRIRIRPPRLPRPRPRPMWWPRP
  shrunken log2 fold change: 0.141

## RRIRFRPPRLPRPRPRPLIPPRP
  shrunken log2 fold change: -0.651

## RRIRKRPPRLPRPRPRPHRAPRP
  shrunken log2 fold change: 0.515

## RRIRNRPPRLPRPRPRPWNVPRP
  shrunken log2 fold change: 0.00489

## RRIRPRPPRLPRPRPRPESFPRP
  shrunken log2 fold change: -0.216

## RRIRCRPPRLPRPRPRPCFKPRP
  shrunken log2 fold change: -0.603

## RRIRSRPPRLPRPRPRPLSQPRP
  shrunken log2 fold change: -0.00748

## RRIRCRPPRLPRPRPRPSTDPRP
  shrunken log2 fold change: -0.348

## RRIRERPPRLPRPRPRPDKRPRP
  shrunken log2 fold change: -0.023

## RRIRKRPPRLPRPRPRPEPHPRP
  shrunken log2 fold change: 0.829

## RRIRRRPPRLPRPRPRPEFMPRP
  shrunken log2 fold change: 0.377

## RRIRRRPPRLPRPRPRPTVEPRP
  shrunken log2 fold change: 1.39

## RRIRHRPPRLPRPRPRPCPSPRP
  shrunken log2 fold change: 0.0144

## RRIRKRPPRLPRPRPRPFDGPRP
  shrunken log2 fold change: 0.23

## RRIRWRPPRLPRPRPRPNLTPRP
  shrunken log2 fold change: -0.222

## RRIRKRPPRLPRPRPRPNAFPRP
  shrunken log2 fold change: 0.0186

## RRIRTRPPRLPRPRPRPNKWPRP
  shrunken log2 fold change: 0.0213

## RRIRNRPPRLPRPRPRPMVWPRP
  shrunken log2 fold change: -0.03

## RRIRTRPPRLPRPRPRPHDRPRP
  shrunken log2 fold change: -0.00195

## RRIRNRPPRLPRPRPRPHSHPRP
  shrunken log2 fold change: -0.472

## RRIRGRPPRLPRPRPRPVMGPRP
  shrunken log2 fold change: 0.289

## RRIRKRPPRLPRPRPRPFPMPRP
  shrunken log2 fold change: 0.0227

## RRIRGRPPRLPRPRPRPVTYPRP
  shrunken log2 fold change: -0.13

## RRIRMRPPRLPRPRPRPCNFPRP
  shrunken log2 fold change: -0.415

## RRIRVRPPRLPRPRPRPYIHPRP
  shrunken log2 fold change: -0.757

## RRIRIRPPRLPRPRPRPFMAPRP
  shrunken log2 fold change: -0.397

## RRIRYRPPRLPRPRPRPWYLPRP
  shrunken log2 fold change: -0.268

## RRIRTRPPRLPRPRPRPRHCPRP
  shrunken log2 fold change: -0.0723

— the supplement of paper PMC9112550, “Optimization of the antimicrobial peptide Bac7 by deep mutational scanning” (BMC Biology, 2022)
